Assay results: patent US20190153119A1

Legend:
TF on A431 cells (human) [1] = target: TF on A431 cells (human) (UniProt P13726); experiment: flow; conditions: Fc fusion
TF on A431 cells (human) [2] = target: TF on A431 cells (human) (UniProt P13726); experiment: flow; conditions: Fc fusion; remark: listed apart in the source

Chain of UniProt P13726 (P13726 33-295): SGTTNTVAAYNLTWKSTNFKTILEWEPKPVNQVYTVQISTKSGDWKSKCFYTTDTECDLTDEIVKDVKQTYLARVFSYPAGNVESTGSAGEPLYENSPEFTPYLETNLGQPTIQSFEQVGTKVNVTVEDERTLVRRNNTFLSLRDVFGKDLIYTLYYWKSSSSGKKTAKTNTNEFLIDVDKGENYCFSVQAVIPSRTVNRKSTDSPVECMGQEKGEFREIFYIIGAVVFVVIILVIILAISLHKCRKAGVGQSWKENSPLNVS

Substance	EC50 (TF on A431 cells (human) [1])	EC50 (TF on A431 cells (human) [2])
ICON1_CHO	12.9 nM	
2-armed ICON1 [Lot 10.1.1]	15 nM	
ICON1_BHK	2.5 nM	3.59 nM
